The values below come from article PMC4597109 (Structure(London, England:1993), 2015).

This data set concerns the molecule itself. Kind of data set: cryo-EM structure.

B1: Barley stripe mosaic virus coat protein, in wild-type virions (wtBSMV) (natural protein)
chain: MPNVSLTAKGGGHYIEDQWDTQVVEAGVFDDWWVHVEAWNKFLDNLRGINFSVASSRSQVAEYLAALDRDLPADVDRRFAGARGQIGSPNYLPAPKFFRLDKRTIAELTRLSRLTDQPHNNRDIELNRAKRATTNPSPPAQAPSENLTLRDVQPLKDSALHYQYVLIDLQSARLPVYTRKTFERELALEWIIPDAEEA
For B1, the binding result is “binds”.
